Data taken from patent US20120108503A1.

Target: hepatic leptin receptor (rat) (UniProt Q62959)
Assay: cell-based or functional assay

UniProt Q62959, sequence (Q62959 22-1162): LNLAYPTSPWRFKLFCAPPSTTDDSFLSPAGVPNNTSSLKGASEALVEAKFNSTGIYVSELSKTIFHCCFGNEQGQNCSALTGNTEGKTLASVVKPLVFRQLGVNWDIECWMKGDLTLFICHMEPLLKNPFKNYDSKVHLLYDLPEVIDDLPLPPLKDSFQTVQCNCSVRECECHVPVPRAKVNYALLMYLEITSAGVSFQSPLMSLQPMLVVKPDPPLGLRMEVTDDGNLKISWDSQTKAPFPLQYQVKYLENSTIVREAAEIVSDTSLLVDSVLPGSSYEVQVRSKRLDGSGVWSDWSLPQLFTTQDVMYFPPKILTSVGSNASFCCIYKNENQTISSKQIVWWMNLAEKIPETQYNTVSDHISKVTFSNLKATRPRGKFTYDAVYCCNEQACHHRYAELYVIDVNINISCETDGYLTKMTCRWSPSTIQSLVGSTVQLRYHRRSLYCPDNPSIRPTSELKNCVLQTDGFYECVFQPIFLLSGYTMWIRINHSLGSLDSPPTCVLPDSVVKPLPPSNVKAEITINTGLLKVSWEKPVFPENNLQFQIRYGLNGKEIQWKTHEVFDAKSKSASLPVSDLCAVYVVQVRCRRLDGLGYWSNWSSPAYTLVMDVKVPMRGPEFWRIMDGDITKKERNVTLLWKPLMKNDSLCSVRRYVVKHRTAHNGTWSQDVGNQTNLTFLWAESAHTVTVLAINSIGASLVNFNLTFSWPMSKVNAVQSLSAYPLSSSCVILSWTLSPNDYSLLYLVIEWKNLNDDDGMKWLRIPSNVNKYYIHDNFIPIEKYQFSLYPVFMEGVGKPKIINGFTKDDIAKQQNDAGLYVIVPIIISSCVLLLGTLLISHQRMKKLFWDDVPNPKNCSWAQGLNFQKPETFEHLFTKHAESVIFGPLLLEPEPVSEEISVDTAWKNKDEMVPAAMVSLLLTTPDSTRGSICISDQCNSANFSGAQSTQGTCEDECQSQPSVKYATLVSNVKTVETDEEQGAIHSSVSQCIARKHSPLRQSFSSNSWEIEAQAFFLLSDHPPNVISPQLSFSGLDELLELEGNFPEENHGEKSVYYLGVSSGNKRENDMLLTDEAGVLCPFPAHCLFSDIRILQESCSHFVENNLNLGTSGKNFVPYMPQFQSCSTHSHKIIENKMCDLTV

## leptin expressed in vivo from adenovirus containing the leptin cDNA (Adv-leptin) (ligand)
  hepatic phosho-STAT-3: 3 fold
